Data: PMC12646667, “Defective Notch1 signaling in endothelial cells drives pathogenesis in a mouse model of Adams-Oliver syndrome” (The Journal of Clinical Investigation, 2025)
Where “and” joins values, the source holds several entries; their conditions need not be identical. Equal entries are not always repeated. One block for each binder: values may come before it.

Experiments:
[1] = target: T1, RBPJ 53-474 (WT mouse RBPJ, conserved core) (mouse, UniProt P31266 53-474); assay: ITC; MicroCal VP-ITC; NOTCH1 peptide or SMT3-SHARP in the syringe (40-100 uM), RBPJ in the cell (4-10 uM); 25 C (298 K); 50 mM sodium phosphate pH 6.5, 150 mM NaCl; 20 injections of 14 uL; 1-site binding model; each of three replicates printed on its own; details: both partners purified
T1 construct: RBPJ, mouse, conserved core (NTD, BTD, linker, CTD), residues 53-474; PDB 3BRG (RBPJ on DNA) was used for modelling only; also called WT RBPJ
T1 sequence (P31266 53-474): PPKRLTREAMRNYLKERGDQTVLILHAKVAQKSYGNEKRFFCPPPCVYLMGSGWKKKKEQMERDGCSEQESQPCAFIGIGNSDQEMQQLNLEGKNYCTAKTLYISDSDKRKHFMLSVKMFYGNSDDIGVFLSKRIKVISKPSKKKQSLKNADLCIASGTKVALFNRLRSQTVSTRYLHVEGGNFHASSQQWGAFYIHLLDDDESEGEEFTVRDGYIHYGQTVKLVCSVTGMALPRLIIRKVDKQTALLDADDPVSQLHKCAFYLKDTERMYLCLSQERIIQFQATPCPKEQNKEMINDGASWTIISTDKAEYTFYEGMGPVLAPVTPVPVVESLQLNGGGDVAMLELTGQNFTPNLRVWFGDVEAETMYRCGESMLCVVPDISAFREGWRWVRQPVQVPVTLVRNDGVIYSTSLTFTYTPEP

RBPJ 53-474, F92V [2] = target: T2, RBPJ 53-474, F92V (mouse, UniProt P31266 53-474, F92V); assay: as above; details: both partners purified
T2 construct: RBPJ, mouse, conserved core, residues 53-474, with F92V (analogous to the human AOS variant F66V); AOS-associated human variant placed in the mouse protein; also called RBPJ^F92V (human F66V)
T2 sequence (P31266 53-474 F92V): as the sequence (P31266 53-474) above, with F40V counted along it

RBPJ 53-474, K195E [3] = target: T3, RBPJ 53-474, K195E (mouse, UniProt P31266 53-474, K195E); assay: as above; details: both partners purified
T3 construct: RBPJ, mouse, conserved core, residues 53-474, with K195E (analogous to the human AOS variant K169E); AOS-associated human variant placed in the mouse protein; also called RBPJ^K195E (human K169E)
T3 sequence (P31266 53-474 K195E): as the sequence (P31266 53-474) above, with K143E counted along it

RBPJ 53-474, E89G [4] = target: T4, RBPJ 53-474, E89G (mouse, UniProt P31266 53-474, E89G); assay: as above; details: both partners purified
T4 construct: RBPJ, mouse, conserved core, residues 53-474, with E89G (analogous to the human AOS variant E63G); AOS-associated human variant placed in the mouse protein; also called RBPJ^E89G (human E63G)
T4 sequence (P31266 53-474 E89G): as the sequence (P31266 53-474) above, with E37G counted along it

RBPJ 53-474, S358R [5] = target: T5, RBPJ 53-474, S358R (mouse, UniProt P31266 53-474, S358R); assay: as above; details: both partners purified
T5 construct: RBPJ, mouse, conserved core, residues 53-474, with S358R (analogous to the human AOS variant S332R); AOS-associated human variant placed in the mouse protein; also called RBPJ^S358R (human S332R)
T5 sequence (P31266 53-474 S358R): as the sequence (P31266 53-474) above, with S306R counted along it

RBPJ 53-474, R91G = target: T6, RBPJ 53-474, R91G (mouse, UniProt P31266 53-474, R91G); assay: as above; details: both partners purified
T6 construct: RBPJ, mouse, conserved core, residues 53-474, with R91G (analogous to the human AOS variant R65G); AOS-associated human variant placed in the mouse protein; also called RBPJ^R91G (human R65G)
T6 sequence (P31266 53-474 R91G): as the sequence (P31266 53-474) above, with R39G counted along it

[6] = target: T7, mouse RBPJ S358R, conserved core (residues 53-474) (mouse, UniProt P31266 53-474, S358R); assay: ITC; MicroCal VP-ITC, 25 °C, 50 mM sodium phosphate pH 6.5, 150 mM NaCl; ligand (RAM peptide or SMT3-SHARP) in the syringe, RBPJ in the cell: 100 µM into 10 µM (R91G), 50 µM into 5 µM (F92V), 40 µM into 4 µM (S358R); 20 injections of 14 µL; 1-site binding model; mean and SD of triplicates; details: both partners purified
T7 construct: RBPJ (Rbpj), mouse, conserved core, residues 53-474, with S358R; Variant found in human AOS patients (human S332R), put into the mouse protein by mutagenesis; also called analogous to human S332R; source: pGEX-6P-1 plasmid, QuikChange mutagenesis
T7 sequence (P31266 53-474 S358R): as the sequence (P31266 53-474) above, with S306R counted along it

[7] = target: T8, mouse RBPJ F92V, conserved core (residues 53-474) (mouse, UniProt P31266 53-474, F92V); assay: as above; details: both partners purified
T8 construct: RBPJ (Rbpj), mouse, conserved core, residues 53-474, with F92V; Variant found in human AOS patients (human F66V), put into the mouse protein by mutagenesis; also called analogous to human F66V; source: pGEX-6P-1 plasmid, QuikChange mutagenesis
T8 sequence (P31266 53-474 F92V): as the sequence (P31266 53-474) above, with F40V counted along it

[8] = target: T1, RBPJ 53-474 (WT mouse RBPJ, conserved …); assay: ITC; MicroCal VP-ITC; NOTCH1 peptide or SMT3-SHARP in the syringe (40-100 uM), RBPJ in the cell (4-10 uM); 25 C (298 K); 50 mM sodium phosphate pH 6.5, 150 mM NaCl; 20 injections of 14 uL; 1-site binding model; each of three replicates printed on its own; details: both partners purified; remark: listed apart in the source
RBPJ 53-474, F92V [9] = target: T2, RBPJ 53-474, F92V; assay: as above; details: both partners purified; remark: listed apart in the source
RBPJ 53-474, K195E [10] = target: T3, RBPJ 53-474, K195E; assay: as above; details: both partners purified; remark: listed apart in the source
RBPJ 53-474, E89G [11] = target: T4, RBPJ 53-474, E89G; assay: as above; details: both partners purified; remark: listed apart in the source
RBPJ 53-474, S358R [12] = target: T5, RBPJ 53-474, S358R; assay: as above; details: both partners purified; remark: listed apart in the source
RBPJ R91G = RBPJ R91G (Mus musculus, UniProt P31266 53-474, R91G); assay: EMSA; 5, 25, 125 nM protein; ITC: 50 mM sodium phosphate pH 6.5, 150 mM NaCl, 10 C, DNA 100 uM in syringe, protein 10 uM in cell; EMSA: 20 min at room temperature, buffer as previously described (not given); details: protein: recombinant; tags: GST-fusion vector pGEX-6P-1; label: 5' IRDye-700 on bottom strand; blunt; S3 primer annealed to S2 and filled in with DNA polymerase I
RBPJ R91G, sequence (P31266 53-474 R91G): as the sequence (P31266 53-474) above, with R39G counted along it

[13] = target: T9, mouse RBPJ R91G, conserved core (residues 53-474) (mouse, UniProt P31266 53-474, R91G); assay: ITC; MicroCal VP-ITC, 25 °C, 50 mM sodium phosphate pH 6.5, 150 mM NaCl; ligand (RAM peptide or SMT3-SHARP) in the syringe, RBPJ in the cell: 100 µM into 10 µM (R91G), 50 µM into 5 µM (F92V), 40 µM into 4 µM (S358R); 20 injections of 14 µL; 1-site binding model; mean and SD of triplicates; details: both partners purified
T9 construct: RBPJ (Rbpj), mouse, conserved core, residues 53-474, with R91G; Variant found in human AOS patients (human R65G), put into the mouse protein by mutagenesis; also called analogous to human R65G; source: pGEX-6P-1 plasmid, QuikChange mutagenesis
T9 sequence (P31266 53-474 R91G): as the sequence (P31266 53-474) above, with R39G counted along it

Ka [1]: 5e+07 M⁻¹ (2×) and 4.4e+07 M⁻¹ | Kd [1]: 20 nM and 22 nM | stoichiometry N [1]: 1.21 and 1.2 and 1.14 | Ka (RBPJ 53-474, F92V [2]): 1.42e+08 M⁻¹ and 1.04e+08 M⁻¹ and 5.61e+07 M⁻¹ | Kd (RBPJ 53-474, F92V [2]): 7 nM and 10 nM and 18 nM | stoichiometry N (RBPJ 53-474, F92V [2]): 0.85 and 0.75 and 0.63 | Ka (RBPJ 53-474, K195E [3]): 7.46e+07 M⁻¹ and 3.08e+07 M⁻¹ and 4.69e+07 M⁻¹ | Kd (RBPJ 53-474, K195E [3]): 13 nM and 32 nM and 21 nM | stoichiometry N (RBPJ 53-474, K195E [3]): 1.33 and 1.2 and 1.23 | Ka (RBPJ 53-474, E89G [4]): 6.24e+07 M⁻¹ and 7.22e+07 M⁻¹ and 3.37e+07 M⁻¹ | Kd (RBPJ 53-474, E89G [4]): 16 nM and 14 nM and 30 nM | stoichiometry N (RBPJ 53-474, E89G [4]): 0.84 and 0.73 and 1.32 | stoichiometry N (RBPJ 53-474, S358R [5]): 0.86 and 0.72 and 0.77 | Ka (RBPJ 53-474, R91G): 6.04e+07 M⁻¹ and 6.65e+07 M⁻¹ and 3.08e+07 M⁻¹ | Kd (RBPJ 53-474, R91G): 17 nM and 15 nM and 32 nM | stoichiometry N (RBPJ 53-474, R91G): 1.06 and 1.03 and 0.92
B1: human NOTCH1 peptide consisting of residues 1754-1781 (peptide, UniProt P46531 1754-1781, looked up)
peptide: VLLSRKRRRQHGQLWFPEGFKVSEASKK
notes: NOTCH1, human, RAM region, residues 1754-1781; also called hN1 RAM 1754-1781; NICD1

Kd [6]: 7.9 nM | Kd [7]: 10.3 nM
B2: SMT3-SHARP 2776-2833, fusion protein with the region of the human SHARP co-repressor that binds RBPJ (domain or fragment, UniProt Q96T58 2776-2833, looked up)
chain: RASANENSRFHPGSMPVIDDRPADAGSGAGLRVNTSEGVVLLSYSGQKTEGPQRISAK
notes: SHARP (SPEN), human, residues 2776-2833; not shown: SMT3, N-terminal, kept

stoichiometry N [8]: 1.2 and 1 and 1.06 | Ka (RBPJ 53-474, F92V [9]): 8.9e+07 M⁻¹ (2×) and 1.2e+08 M⁻¹ | Kd (RBPJ 53-474, F92V [9]): 11 nM and 11.3 nM and 9 nM | stoichiometry N (RBPJ 53-474, F92V [9]): 1.17 and 1.09 and 1.12 | Kd (RBPJ 53-474, K195E [10]): 12 nM and 35 nM and 17 nM | stoichiometry N (RBPJ 53-474, K195E [10]): 0.94 and 0.84 and 0.95 | stoichiometry N (RBPJ 53-474, E89G [11]): 1.37 and 1.34 and 1.15 | Ka (RBPJ 53-474, S358R [12]): 9.83e+07 M⁻¹ and 1.28e+08 M⁻¹ and 1.73e+08 M⁻¹ | Kd (RBPJ 53-474, S358R [12]): 10 nM and 7.8 nM and 6 nM | stoichiometry N (RBPJ 53-474, S358R [12]): 0.89 and 1.02 and 1.08
B3: SMT3-MINT 2776-2833 (human SHARP residues 2776-2833 with N-terminal SMT3 and His tag) (domain or fragment, UniProt Q96T58 2776-2833, looked up)
chain: B2 chain
notes: SHARP (MINT), human, residues 2776-2833; not shown: SMT3, N-terminal, kept

B4: EMSA probe 1xCSL (1016ic) (dsDNA)
DNA 1: CGAACGAGGCAAACCTAGGCTAGAGGCACCGTGGGAAACTAGTGCGGGCGTGGCT
DNA 2: AGCCACGCCCGCACTAGTTTCCCACGGTGCCTCTAGCCTAGGTTTGCCTCGTTCG
binding result (RBPJ R91G): no binding

Kd [6]: 13.3 nM | Kd [7]: 11.5 nM | Kd [13]: 21.4 nM
B5: RBPJ association module (RAM) domain peptide of the human Notch1 intracellular domain, residues 1754-1781 (peptide)
peptide: VLLSRKRRRQHGQLWFPEGFKVSEASKK
notes: NOTCH1, human, RAM domain of the intracellular domain, residues 1754-1781; also called NICD; NICD1; source: synthetic peptide
